From patent US20120171723A1 (published 2012)
Where “and” joins values, the source holds several entries; their conditions need not be identical. Equal entries are not always repeated.

What was measured:
Assay in all cases: cell-based or functional assay
[1] = target: FGFR1α-IIIb expressed on transfected BAF3 cells
[2] = target: FGFR1α-IIIc expressed on transfected BAF3 cells
[3] = target: FGFR2α-IIIb expressed on transfected BAF3 cells
[4] = target: FGFR3α-IIIb expressed on transfected BAF3 cells
[5] = target: FGFR3α-IIIc expressed on transfected BAF3 cells
[6] = target: FGFR2α-IIIc expressed on transfected BAF3 cells
[7] = target: FGFR3α-IIIc expressed on transfected BAF3 cells; remark: listed apart in the source

B1: human zFGF5 (FGF homolog polypeptide) (ligand)
chain: EENVDFRIHVENQTRARDDVSRKQLRLYQLYSRTSGKHIQVLGRRISARGEDGDKYAQLLVETDTFGSQVRIKGKETEFYLCMNRKGKLVGKPDGTSKECVFIEKVLENNYTALMSAKYSGWYVGFTKKGRPRKGPKTRENQQDVHFMKRYPKGQPELQKPFKYTTVTKRSRRIRPTHPA
For B1, the “Alamar Blue Units (proliferation of BAF3 cells expressing the receptor) at 1.6 ng/ml zFGF5” value (“Alamar Blue Units … at 1.6 ng/ml zFGF5” for short) [1] was 0 Alamar Blue Units, the “Alamar Blue Units (proliferation of BAF3 cells expressing the receptor) at 3.1 ng/ml zFGF5” value (“Alamar Blue Units … at 3.1 ng/ml zFGF5” below) [1] was 1.7 Alamar Blue Units and the “Alamar Blue Units (proliferation of BAF3 cells expressing the receptor) at 6.2 ng/ml zFGF5” value (shortened to “Alamar Blue Units … at 6.2 ng/ml zFGF5”) [1] was 1.3 Alamar Blue Units. The “Alamar Blue Units (proliferation of BAF3 cells expressing the receptor) at 12.5 ng/ml zFGF5” value (“Alamar Blue Units … at 12.5 ng/ml zFGF5” for short) [1] was 0 Alamar Blue Units, the “Alamar Blue Units (proliferation of BAF3 cells expressing the receptor) at 25 ng/ml zFGF5” value (“Alamar Blue Units … at 25 ng/ml zFGF5” for short) [1] was 10.9 Alamar Blue Units and the “Alamar Blue Units (proliferation of BAF3 cells expressing the receptor) at 50 ng/ml zFGF5” value (shortened to “Alamar Blue Units … at 50 ng/ml zFGF5”) [1] was 0 Alamar Blue Units. For the same binder, the “Alamar Blue Units (proliferation of BAF3 cells expressing the receptor) at 100 ng/ml zFGF5” value (“Alamar Blue Units … at 100 ng/ml zFGF5” below) [1] was 0 Alamar Blue Units, the “Alamar Blue Units (proliferation of BAF3 cells expressing the receptor) at 200 ng/ml zFGF5” value (shortened to “Alamar Blue Units … at 200 ng/ml zFGF5”) [1] was 0 Alamar Blue Units and the “Alamar Blue Units … at 1.6 ng/ml zFGF5” value [2] was 2.6 Alamar Blue Units. For the same binder, the “Alamar Blue Units … at 3.1 ng/ml zFGF5” value [2] was 4.2 Alamar Blue Units, the “Alamar Blue Units … at 6.2 ng/ml zFGF5” value [2] was 14.2 Alamar Blue Units and the “Alamar Blue Units … at 12.5 ng/ml zFGF5” value [2] was 29.9 Alamar Blue Units. The “Alamar Blue Units … at 25 ng/ml zFGF5” value [2] was 86 Alamar Blue Units, the “Alamar Blue Units … at 50 ng/ml zFGF5” value [2] was 224 Alamar Blue Units and the “Alamar Blue Units … at 100 ng/ml zFGF5” value [2] was 488 Alamar Blue Units. The “Alamar Blue Units … at 200 ng/ml zFGF5” value [2] was 912 Alamar Blue Units, the “Alamar Blue Units … at 1.6 ng/ml zFGF5” value [3] was 0.2 Alamar Blue Units and the “Alamar Blue Units … at 3.1 ng/ml zFGF5” value [3] was 0.06 Alamar Blue Units. The “Alamar Blue Units … at 6.2 ng/ml zFGF5” value [3] was 0 Alamar Blue Units, the “Alamar Blue Units … at 12.5 ng/ml zFGF5” value [3] was 0.4 Alamar Blue Units and the “Alamar Blue Units … at 25 ng/ml zFGF5” value [3] was 0.2 Alamar Blue Units. The “Alamar Blue Units … at 50 ng/ml zFGF5” value [3] was 0.5 Alamar Blue Units, the “Alamar Blue Units … at 100 ng/ml zFGF5” value [3] was 1.3 Alamar Blue Units and the “Alamar Blue Units … at 200 ng/ml zFGF5” value [3] was 1.3 Alamar Blue Units. The “Alamar Blue Units … at 1.6 ng/ml zFGF5” value [4] was 0 Alamar Blue Units, the “Alamar Blue Units … at 3.1 ng/ml zFGF5” value [4] was 0 Alamar Blue Units and the “Alamar Blue Units … at 6.2 ng/ml zFGF5” value [4] was 0 Alamar Blue Units. For the same binder, the “Alamar Blue Units … at 12.5 ng/ml zFGF5” value [4] was 0 Alamar Blue Units, the “Alamar Blue Units … at 25 ng/ml zFGF5” value [4] was 1.4 Alamar Blue Units and the “Alamar Blue Units … at 50 ng/ml zFGF5” value [4] was 19 Alamar Blue Units. The “Alamar Blue Units … at 100 ng/ml zFGF5” value [4] was 189 Alamar Blue Units, the “Alamar Blue Units … at 200 ng/ml zFGF5” value [4] was 472 Alamar Blue Units and the “Alamar Blue Units … at 1.6 ng/ml zFGF5” value [5] was 1400 Alamar Blue Units. The “Alamar Blue Units … at 3.1 ng/ml zFGF5” value [5] was 2000 Alamar Blue Units, the “Alamar Blue Units … at 6.2 ng/ml zFGF5” value [5] was 2580 Alamar Blue Units and the “Alamar Blue Units … at 12.5 ng/ml zFGF5” value [5] was 3200 Alamar Blue Units. For the same binder, the “Alamar Blue Units … at 25 ng/ml zFGF5” value [5] was 3760 Alamar Blue Units, the “Alamar Blue Units … at 50 ng/ml zFGF5” value [5] was 3960 Alamar Blue Units and the “Alamar Blue Units … at 100 ng/ml zFGF5” value [5] was 4120 Alamar Blue Units. For the same binder, the “Alamar Blue Units … at 200 ng/ml zFGF5” value [5] was 4200 Alamar Blue Units, the “Alamar Blue Units … at 1.6 ng/ml zFGF5” value [6] was 241 Alamar Blue Units and the “Alamar Blue Units … at 3.1 ng/ml zFGF5” value [6] was 480 Alamar Blue Units. The “Alamar Blue Units … at 6.2 ng/ml zFGF5” value [6] was 715 Alamar Blue Units, the “Alamar Blue Units … at 12.5 ng/ml zFGF5” value [6] was 977 Alamar Blue Units and the “Alamar Blue Units … at 25 ng/ml zFGF5” value [6] was 1310 Alamar Blue Units. For the same binder, the “Alamar Blue Units … at 50 ng/ml zFGF5” value [6] was 1520 Alamar Blue Units, the “Alamar Blue Units … at 100 ng/ml zFGF5” value [6] was 1720 Alamar Blue Units and the “Alamar Blue Units … at 200 ng/ml zFGF5” value [6] was 1790 Alamar Blue Units. For the same binder, the “EC50 of the cell proliferative response” value [7] was ~1 ng/mL and ~2 ng/mL.
